Laboratory results: PMC5136619, “Crystal structure of bacterial haem importer complex in the inward-facing conformation” (Nature Communications, 2016)

Experiments:
[1] = target: BhuUV haem importer complex (two BhuU and two BhuV) (Burkholderia cenocepacia)
[2] = target: BhuU, transmembrane permease subunit (TMD) of the haem importer BhuUV (Burkholderia cenocepacia); test: crystal structure; BhuUV-T complex, nucleotide-free and haem-free, in n-nonyl-beta-D-glucopyranoside; crystallised at 20 °C, 15% PEG 2000, 0.1 M HEPES pH 7.6; 3.2 Å
[3] = target: BhuU, transmembrane permease subunit (TMD) of the haem importer BhuUV (Burkholderia cenocepacia); test: crystal structure; BhuUV without BhuT, nucleotide-free; 30% PEG 400, 0.1 M NaCl, 0.1 M Li2SO4, 0.1 M Tris-HCl pH 8.5, 4 °C; 2.8 Å
[4] = target: BhuV, nucleotide-binding ATPase subunit (NBD) of the haem importer BhuUV (Burkholderia cenocepacia); test: crystal structure; BhuUV-T complex, nucleotide-free and haem-free, in n-nonyl-beta-D-glucopyranoside; crystallised at 20 °C, 15% PEG 2000, 0.1 M HEPES pH 7.6; 3.2 Å
[5] = target: BhuV, nucleotide-binding ATPase subunit (NBD) of the haem importer BhuUV (Burkholderia cenocepacia); test: crystal structure; BhuUV without BhuT, nucleotide-free; 30% PEG 400, 0.1 M NaCl, 0.1 M Li2SO4, 0.1 M Tris-HCl pH 8.5, 4 °C; 2.8 Å

BhuT, periplasmic haem-binding protein (PBP), residues 40-311 (domain or fragment)
ATPase activity (Vmax) of BhuUV in detergent solution on addition of haem-free BhuT (Vmax 5.0 to 7.1 μmol min^−1 mg^−1) [1]: 1.4 fold
ATPase activity of BhuUV reconstituted in liposomes, with BhuT [1]: 1.4 fold

BhuU, transmembrane permease subunit (TMD) of the haem importer BhuUV (natural protein)
stoichiometry N [2]: 2
stoichiometry N [3]: 2

BhuV, nucleotide-binding ATPase subunit (NBD) of the haem importer BhuUV (natural protein)
stoichiometry N [4]: 2
stoichiometry N [5]: 2
